# Data from publication PMC5353671, “A bacterial aromatic aldehyde dehydrogenase critical for the efficient catabolism of syringaldehyde” (Scientific Reports, 2017).
# Key:
# [1] = molecular target: DesV (SLG_28320 gene product), His-tag fused (Sphingobium sp. SYK-6); assay: SEC; Superdex200 10/300GL, 50 mM KH2PO4-K2HPO4 buffer (pH 7.0) with 150 mM NaCl, 0.5 ml/min; native mass estimated and compared with the monomer size
# COc1cc(C=O)cc(OC)c1O = test system: T1, COc1cc(C=O)cc(OC)c1O; assay: HPLC, Hanes-Woolf plot; assay type: biochemical, Sphingobium sp. SYK-6; conditions: 500 μM NAD+, pH 7.0 phosphate buffer, 30 °C
# T1 construct: calculated Mr 55,173; dimer 120 kDa
# Text: (§1) HPLC, Hanes-Woolf plot on DesV (SLG_28320)
# COc1cc(C=O)ccc1O = test system: T2, COc1cc(C=O)ccc1O; assay: HPLC, Hanes-Woolf plot; assay type: biochemical, Sphingobium sp. SYK-6; conditions: 500 μM NAD+, pH 7.0 phosphate buffer, 30 °C
# T2 construct: calculated Mr 55,173; dimer 120 kDa
# Text: as §1
# [2] = molecular target: LigV (vanillin dehydrogenase), His-tag fused (Sphingobium sp. SYK-6); assay: SEC; Superdex200 10/300GL, 50 mM KH2PO4-K2HPO4 buffer (pH 7.0) with 150 mM NaCl, 0.5 ml/min; native mass estimated and compared with the monomer size
# Chain of DesV (SLG_28320) (Sphingobium sp. SYK-6) (chain, as listed by the source): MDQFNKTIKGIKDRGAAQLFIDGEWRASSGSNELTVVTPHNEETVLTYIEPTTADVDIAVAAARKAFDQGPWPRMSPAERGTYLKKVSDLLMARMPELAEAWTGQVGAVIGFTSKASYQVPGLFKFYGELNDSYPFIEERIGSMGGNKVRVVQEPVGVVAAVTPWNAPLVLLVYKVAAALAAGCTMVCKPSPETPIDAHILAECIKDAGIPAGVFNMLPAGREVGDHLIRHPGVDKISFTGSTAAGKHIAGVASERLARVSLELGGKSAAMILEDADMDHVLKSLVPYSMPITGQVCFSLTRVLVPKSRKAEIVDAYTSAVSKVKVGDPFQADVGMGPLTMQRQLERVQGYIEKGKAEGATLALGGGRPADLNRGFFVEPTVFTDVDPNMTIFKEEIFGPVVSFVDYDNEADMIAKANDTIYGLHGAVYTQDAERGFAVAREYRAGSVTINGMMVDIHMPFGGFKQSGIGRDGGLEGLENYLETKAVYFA
substance,measurement,setting,value
"DesV (SLG_28320 gene product), His-tag fused (enzyme)",stoichiometry N,[1],2
DesV (SLG_28320) (Sphingobium sp. SYK-6),Km,COc1cc(C=O)cc(OC)c1O,0.48 ± 0.03 µM
same,Vmax,COc1cc(C=O)cc(OC)c1O,1.08 µmol/min/mg
same,kcat,COc1cc(C=O)cc(OC)c1O,0.99 ± 0.01 s⁻¹
same,kcat/Km,COc1cc(C=O)cc(OC)c1O,2.1e+06 ± 93000 M⁻¹ s⁻¹
same,Km,COc1cc(C=O)ccc1O,0.47 ± 0.04 µM
same,Vmax,COc1cc(C=O)ccc1O,0.85 µmol/min/mg
same,kcat,COc1cc(C=O)ccc1O,0.79 ± 0.01 s⁻¹
same,kcat/Km,COc1cc(C=O)ccc1O,1.7e+06 ± 140000 M⁻¹ s⁻¹
"LigV (vanillin dehydrogenase), His-tag fused (enzyme)",stoichiometry N,[2],4
